Measured values from paper PMC12005765 (Advanced Science, 2025).

What was measured:
Test in all cases: SPR; IgGs or Fc fusions captured on antihuman Fc polyclonal antibodies amine-coupled to a CM5 chip; spike trimer or CD3 epsilon-delta heterodimer injected; blank flow cell subtracted; 1:1 Langmuir model, simultaneous global fit of ka and kd, KD = kd/ka; BIAcore 2000 (methods) or BIAcore T100 (footnote of Table S3)
[1] = molecular target: ectodomain of the S trimer from the prototypic SARS-CoV-2 Wuhan-Hu-1 strain (SARS-CoV-2 Wuhan-Hu-1) (UniProt P0DTC2)
[2] = molecular target: SA07, anti-S/CD3 bispecific antibody-like molecule from ACE2-Fc/UCHT1 (UniProt Q9BYF1)
[3] = molecular target: SS12, anti-S/CD3 bispecific CrossMab from S3H3/UCHT1
Chain of SS12, anti-S/CD3 bispecific CrossMab from S3H3/UCHT1 (heavy, as listed by the source, chain 1 of 4): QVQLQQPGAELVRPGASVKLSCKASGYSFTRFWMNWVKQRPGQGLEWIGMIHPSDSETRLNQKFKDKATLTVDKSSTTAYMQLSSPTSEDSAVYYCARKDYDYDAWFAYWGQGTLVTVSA
Chain of SS12, anti-S/CD3 bispecific CrossMab from S3H3/UCHT1 (heavy, as listed by the source, chain 2 of 4): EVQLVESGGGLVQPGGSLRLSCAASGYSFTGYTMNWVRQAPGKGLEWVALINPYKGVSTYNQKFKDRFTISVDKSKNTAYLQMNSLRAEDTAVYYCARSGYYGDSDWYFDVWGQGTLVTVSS
Chain of SS12, anti-S/CD3 bispecific CrossMab from S3H3/UCHT1 (light, as listed by the source, chain 3 of 4): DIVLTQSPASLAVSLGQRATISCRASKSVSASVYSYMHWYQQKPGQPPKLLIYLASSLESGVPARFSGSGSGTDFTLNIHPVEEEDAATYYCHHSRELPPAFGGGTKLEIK
Chain of SS12, anti-S/CD3 bispecific CrossMab from S3H3/UCHT1 (light, as listed by the source, chain 4 of 4): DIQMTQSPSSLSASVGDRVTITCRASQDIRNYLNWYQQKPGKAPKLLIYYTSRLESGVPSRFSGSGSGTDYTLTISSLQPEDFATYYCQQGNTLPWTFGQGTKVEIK

Substance | Kd [1] | koff [1] | kon [1] | Kd [2] | Kd [3]
SC02, anti-S/CD3 bispecific CrossMab from CV3-25/UCHT1 (bispecific antibody) | 4.82 nM | 0.00436 s⁻¹ | 904000 M⁻¹ s⁻¹ | – | –
ectodomain of the S trimer from the prototypic SARS-CoV-2 Wuhan-Hu-1 strain (from UniProt P0DTC2 14-1213) (domain or fragment) | – | – | – | 9.39 nM | 6.2 nM
